Assay [1] deals with T1, human EpCAM antigen on Kato III cells or human EpCAM transfected CHO cells (human, UniProt P16422 24-265).
T1 construct: 137 holds only the extracellular portion; the protein stood whole on cells
T1 sequence: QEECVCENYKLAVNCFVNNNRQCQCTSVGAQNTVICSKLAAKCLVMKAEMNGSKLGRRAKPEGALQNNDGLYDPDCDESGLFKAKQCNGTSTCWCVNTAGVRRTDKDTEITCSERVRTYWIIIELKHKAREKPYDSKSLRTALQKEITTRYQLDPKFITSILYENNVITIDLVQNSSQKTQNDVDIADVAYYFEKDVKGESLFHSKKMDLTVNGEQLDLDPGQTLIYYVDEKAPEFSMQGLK
In words: FACS, Kato III cells (FIG. 8A), anti-His detection. The source says: (§1) FIG. 8: FACS assay for binding of 2G8LH×SEQ ID NO. 12, 2G8LH×SEQ ID NO. 10, 2G8LH×SEQ ID NO. 16, 2G8LH×SEQ ID NO. 14, 2G8HL×SEQ ID NO. 12, 2G8HL×SEQ ID NO. 10, 2G8HL×SEQ ID NO. 16 and 2G8HL×SEQ ID NO. 14 on Kato III (FIG. 8A) cells or cynomolgus EpCAM transfected CHO cells (FIG. 8B) and HPB-ALL cells. Antigen binding was clearly detectable for the anti EpCAM specificities as well as for the anti CD3 specificities. As a negative control for binding to cynomolgus EpCAM, the 5-10LH×SEQ ID NO.
(§2) Binding of the bifunctional constructs from cell culture supernatants or binding of purified bifunctional constructs to the human EpCAM antigen on Kato III cells or cynomolgus EpCAM transfected CHO cells and to the CD3 antigen on HPB-ALL cells was tested using an FACS assay. For that purpose 2.5×10⁵ cells were incubated with 50 μl supernatant or with 5 μg/ml of the purified constructs in 50 μl PBS with 2% FCS. The binding of the constructs was detected with an anti-His antibody (Penta-His Antibody, BSA free, obtained from Qiagen GmbH, Hilden, FRG) at 2 μg/ml in 50 μl PBS with 2% FCS. […] The samples were measured on a FACSscan (BD biosciences, Heidelberg, FRG). Antigen binding was clearly detectable for the anti EpCAM specificities as well as for the anti CD3 specificities (see FIG. 8). As a negative control for binding to cynomolgus EpCAM, the 5-10LH×SEQ ID NO. […] The 5-10LH part only binds to human EpCAM.

The target of assay [2] is T2, cynomolgus EpCAM antigen on transfected CHO cells (cynomolgus, UniProt Q1WER1 24-265 (rhesus entry)).
T2 construct: 48 holds the extracellular portion
T2 sequence: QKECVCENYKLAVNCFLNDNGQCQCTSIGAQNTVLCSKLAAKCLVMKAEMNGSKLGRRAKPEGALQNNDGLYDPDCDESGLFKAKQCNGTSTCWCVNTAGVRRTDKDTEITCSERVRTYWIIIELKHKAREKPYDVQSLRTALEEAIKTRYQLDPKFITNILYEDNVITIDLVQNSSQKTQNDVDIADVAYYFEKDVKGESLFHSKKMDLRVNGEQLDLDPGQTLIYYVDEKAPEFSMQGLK
The assay can be described thus: FACS, cynomolgus EpCAM transfected CHO cells (FIG. 8B), anti-His detection.
Description: as §1, §2
On the technique in general: In flow cytometry, cells or beads pass a laser one at a time.

Assay [3] has as its target cynomolgus CD3 antigen on cynomolgus PBMC / macaque T cells (Macaca fascicularis (cynomolgus), UniProt Q95LI5 22-117; Q95LI7 23-110; Q95LI8 22-103). The assay can be described thus: cell-based or functional assay.
In assay [4] the target is T2, cynomolgus EpCAM antigen on transfected …. In words: cell-based or functional assay.
The target in assay [5] is T1, human EpCAM antigen on Kato III cells …. The assay can be described thus: cell-based or functional assay.

Chain of cynomolgus CD3 antigen on cynomolgus PBMC / macaque T cells (Q95LI5 22-117, chain 1 of 3): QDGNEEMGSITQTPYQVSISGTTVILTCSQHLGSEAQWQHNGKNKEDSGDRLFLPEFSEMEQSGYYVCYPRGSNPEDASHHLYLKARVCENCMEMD
Chain of cynomolgus CD3 antigen on cynomolgus PBMC / macaque T cells (Q95LI7 23-110, chain 2 of 3): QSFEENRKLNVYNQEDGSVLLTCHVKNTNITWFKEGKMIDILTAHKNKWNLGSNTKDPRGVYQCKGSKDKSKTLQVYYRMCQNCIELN
Chain of cynomolgus CD3 antigen on cynomolgus PBMC / macaque T cells (Q95LI8 22-103, chain 3 of 3): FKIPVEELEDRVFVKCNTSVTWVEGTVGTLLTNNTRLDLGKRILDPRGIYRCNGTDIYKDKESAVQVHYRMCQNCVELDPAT

B1: 2G8HL×SEQ ID NO. 10 bispecific single chain antibody (bispecific antibody)
chain: EVQLQQSGAELVRSGASVKLSCTASGFNIKDYYLHWVKQRPEQGLEWIAWIDLENGDIKYAPKFQGKATITADTSSNTAYLQLSSLTSEDTAVYYCNPYYYGSNYDYAMDYWGQGTSVTVSSGGGGSGGGGSGGGGSDVVMTQTPLTLSVTIGQPASISCKSSQSLLYSNGKTYLNWILQRPGQSPKRLIYLVSKLDSGVPDRFTGSGSGTDFTLKISRVEAEDLGVYYCVQGTHFPLTFGAGTKLELKSGGGGSEVKLLESGGGLVQPKGSLKLSCAASGFTFNTYAMNWVRQAPGKGLEWVARIRSKYNNYATYYADSVKDRFTISRDDSQSILYLQMNNLKTEDTAMYYCVRHGNFGNSYVSWFAYWGQGTLVTVSAGGGGSGGGGSGGGGSQAVVTQESALTTSPGETVTLTCRSSTGAVTTSNYANWVQEKPDHLFTGLIGGTNKRAPGVPARFSGSLIGDKAALTITGAQTEDEAIYFCALWYSNLWVFGGGTKLTVLHHHHHH
B1: the binding result in assay [1] and in assay [2] was “binds” in each case.

B2: 2G8HL×SEQ ID NO. 14 bispecific single chain antibody (bispecific antibody)
chain: EVQLQQSGAELVRSGASVKLSCTASGFNIKDYYLHWVKQRPEQGLEWIAWIDLENGDIKYAPKFQGKATITADTSSNTAYLQLSSLTSEDTAVYYCNPYYYGSNYDYAMDYWGQGTSVTVSSGGGGSGGGGSGGGGSDVVMTQTPLTLSVTIGQPASISCKSSQSLLYSNGKTYLNWILQRPGQSPKRLIYLVSKLDSGVPDRFTGSGSGTDFTLKISRVEAEDLGVYYCVQGTHFPLTFGAGTKLELKSGGGGSQVQLQQSGAELARPGASVKMSCKASGYTFTRSTMHWVKQRPGQGLEWIGYINPSSAYTNYNQKFKDKATLTADKSSSTAYMQLSSLTSEDSAVYYCASPQVHYDYNGFPYWGQGTLVTVSAGGGGSGGGGSGGGGSQVVLTQSPAIMSAFPGEKVTMTCSASSSVSYMNWYQQKSGTSPKRWIYDSSKLASGVPARFSGSGSGTSYSLTISSMETEDAATYYCQQWSRNPPTFGGGTKLQITHHHHHH
Regarding B2, the binding result in assay [1] and in assay [2] was “binds” in each case.

B3: 2G8HL×SEQ ID NO. 12 bispecific single chain antibody (bispecific antibody)
chain: EVQLQQSGAELVRSGASVKLSCTASGFNIKDYYLHWVKQRPEQGLEWIAWIDLENGDIKYAPKFQGKATITADTSSNTAYLQLSSLTSEDTAVYYCNPYYYGSNYDYAMDYWGQGTSVTVSSGGGGSGGGGSGGGGSDVVMTQTPLTLSVTIGQPASISCKSSQSLLYSNGKTYLNWILQRPGQSPKRLIYLVSKLDSGVPDRFTGSGSGTDFTLKISRVEAEDLGVYYCVQGTHFPLTFGAGTKLELKSGGGGSQAVVTQESALTTSPGETVTLTCRSSTGAVTTSNYANWVQEKPDHLFTGLIGGTNKRAPGVPARFSGSLIGDKAALTITGAQTEDEAIYFCALWYSNLWVFGGGTKLTVLGGGGSGGGGSGGGGSEVKLLESGGGLVQPKGSLKLSCAASGFTFNTYAMNWVRQAPGKGLEWVARIRSKYNNYATYYADSVKDRFTISRDDSQSILYLQMNNLKTEDTAMYYCVRHGNFGNSYVSWFAYWGQGTLVTVSAHHHHHH
As to B3, the binding result in assay [1] was “binds”. Besides, the “EC50 (half maximal killing), FACS-based cytotoxicity, cynomolgus EpCAM transfected CHO target cells, cynomolgus PBMC effector cells” value in assay [3] amounted to 60.4 ng/mL. Further, in assay [4], the “EC50 (half maximal killing), FACS-based cytotoxicity, cynomolgus EpCAM transfected CHO target cells, cynomolgus PBMC effector cells” value came out at 60.4 ng/mL and the “EC50 (half maximal killing), FACS-based cytotoxicity, cynomolgus EpCAM transfected CHO target cells, human PBMC effector cells” value turned out to be 3640 pg/mL.

B4: 2G8HL×SEQ ID NO. 16 bispecific single chain antibody (bispecific antibody)
chain: EVQLQQSGAELVRSGASVKLSCTASGFNIKDYYLHWVKQRPEQGLEWIAWIDLENGDIKYAPKFQGKATITADTSSNTAYLQLSSLTSEDTAVYYCNPYYYGSNYDYAMDYWGQGTSVTVSSGGGGSGGGGSGGGGSDVVMTQTPLTLSVTIGQPASISCKSSQSLLYSNGKTYLNWILQRPGQSPKRLIYLVSKLDSGVPDRFTGSGSGTDFTLKISRVEAEDLGVYYCVQGTHFPLTFGAGTKLELKSGGGGSQVVLTQSPAIMSAFPGEKVTMTCSASSSVSYMNWYQQKSGTSPKRWIYDSSKLASGVPARFSGSGSGTSYSLTISSMETEDAATYYCQQWSRNPPTFGGGTKLQITGGGGSGGGGSGGGGSQVQLQQSGAELARPGASVKMSCKASGYTFTRSTMHWVKQRPGQGLEWIGYINPSSAYTNYNQKFKDKATLTADKSSSTAYMQLSSLTSEDSAVYYCASPQVHYDYNGFPYWGQGTLVTVSAHHHHHH
On to B4, for which the binding result in assay [1] and in assay [2] was “binds” each time.

B5: 5-10LH×SEQ ID NO. 12 bispecific single chain antibody (bispecific antibody)
chain: ELVMTQSPSSLTVTAGEKVTMSCKSSQSLLNSGNQKNYLTWYQQKPGQPPKLLIYWASTRESGVPDRFTGSGSGTDFTLTISSVQAEDLAVYYCQNDYSYPLTFGAGTKLEIKGGGGSGGGGSGGGGSEVQLLEQSGAELVRPGTSVKISCKASGYAFTNYWLGWVKQRPGHGLEWIGDIFPGSGNIHYNEKFKGKATLTADKSSSTAYMQLSSLTFEDSAVYFCARLRNWDEPMDYWGQGTTVTVSSGGGGSQAVVTQESALTTSPGETVTLTCRSSTGAVTTSNYANWVQEKPDHLFTGLIGGTNKRAPGVPARFSGSLIGDKAALTITGAQTEDEAIYFCALWYSNLWVFGGGTKLTVLGGGGSGGGGSGGGGSEVKLLESGGGLVQPKGSLKLSCAASGFTFNTYAMNWVRQAPGKGLEWVARIRSKYNNYATYYADSVKDRFTISRDDSQSILYLQMNNLKTEDTAMYYCVRHGNFGNSYVSWFAYWGQGTLVTVSAHHHHHH
Regarding B5, the “EC50 (half maximal killing), FACS-based cytotoxicity, Kato III target cells, cynomolgus PBMC effector cells” value in assay [3] was determined as 69 pg/mL. Besides, in assay [5], the “EC50 (half maximal killing), FACS-based cytotoxicity, Kato III target cells, human PBMC effector cells” value is 1.5 pg/mL.

B6: 5-10LH×SEQ ID NO. 14 bispecific single chain antibody (bispecific antibody)
chain: ELVMTQSPSSLTVTAGEKVTMSCKSSQSLLNSGNQKNYLTWYQQKPGQPPKLLIYWASTRESGVPDRFTGSGSGTDFTLTISSVQAEDLAVYYCQNDYSYPLTFGAGTKLEIKGGGGSGGGGSGGGGSEVQLLEQSGAELVRPGTSVKISCKASGYAFTNYWLGWVKQRPGHGLEWIGDIFPGSGNIHYNEKFKGKATLTADKSSSTAYMQLSSLTFEDSAVYFCARLRNWDEPMDYWGQGTTVTVSSGGGGSQVQLQQSGAELARPGASVKMSCKASGYTFTRSTMHWVKQRPGQGLEWIGYINPSSAYTNYNQKFKDKATLTADKSSSTAYMQLSSLTSEDSAVYYCASPQVHYDYNGFPYWGQGTLVTVSAGGGGSGGGGSGGGGSQVVLTQSPAIMSAFPGEKVTMTCSASSSVSYMNWYQQKSGTSPKRWIYDSSKLASGVPARFSGSGSGTSYSLTISSMETEDAATYYCQQWSRNPPTFGGGTKLQITHHHHHH
With B6, the “EC50 (half maximal killing), FACS-based cytotoxicity, Kato III target cells, cynomolgus PBMC effector cells” value in assay [3] was 87 pg/mL. Also, in assay [5], the “EC50 (half maximal killing), FACS-based cytotoxicity, Kato III target cells, human PBMC effector cells” value was 1.3 pg/mL.

B7: 2G8LH×SEQ ID NO. 10 bispecific single chain antibody (bispecific antibody)
chain: DVVMTQTPLTLSVTIGQPASISCKSSQSLLYSNGKTYLNWILQRPGQSPKRLIYLVSKLDSGVPDRFTGSGSGTDFTLKISRVEAEDLGVYYCVQGTHFPLTFGAGTKLELKGGGGSGGGGSGGGGSEVQLQQSGAELVRSGASVKLSCTASGFNIKDYYLHWVKQRPEQGLEWIAWIDLENGDIKYAPKFQGKATITADTSSNTAYLQLSSLTSEDTAVYYCNPYYYGSNYDYAMDYWGQGTSVTVSSGGGGSEVKLLESGGGLVQPKGSLKLSCAASGFTFNTYAMNWVRQAPGKGLEWVARIRSKYNNYATYYADSVKDRFTISRDDSQSILYLQMNNLKTEDTAMYYCVRHGNFGNSYVSWFAYWGQGTLVTVSAGGGGSGGGGSGGGGSQAVVTQESALTTSPGETVTLTCRSSTGAVTTSNYANWVQEKPDHLFTGLIGGTNKRAPGVPARFSGSLIGDKAALTITGAQTEDEAIYFCALWYSNLWVFGGGTKLTVLHHHHHH
Take B7: in assay [1], the binding result was “binds”. For the same molecule, the “EC50 (half maximal killing), FACS-based cytotoxicity, cynomolgus EpCAM transfected CHO target cells, cynomolgus PBMC effector cells” value in assay [3] and in assay [4] was 39.8 ng/mL in each case. For the same molecule, the “EC50 (half maximal killing), FACS-based cytotoxicity, cynomolgus EpCAM transfected CHO target cells, human PBMC effector cells” value in assay [4] was 1100 pg/mL.

The values above are taken from patent US20090252683A1 (Amgen, published 2009).
